Patent US20090130134A1, “T CD4+ Epitopes of Type I and II Latency Antigens of the Epstein-Barr Virus, Which Can Be Recognized by the majority of individuals in the caucasian populations and applications thereof” (priority 2005, published 2009)

T1: HLA-DP4 (DPB1*0401) (human), P20036
T1 chain 1: not shown
T1 chain 2: not shown

T2: HLA-DP4 (DPB1*0402) (human), P20036
T2 chain 1: not shown
T2 chain 2: not shown


Key:
[1] = target: T1, HLA-DP4 (DPB1*0401) (human), P20036; assay: competition ELISA, tracer Oxy 271-287
[2] = target: T2, HLA-DP4 (DPB1*0402) (human), P20036; assay: competition ELISA, tracer Oxy 271-287
HLA-DR7 (human) = assay: competition ELISA, tracer YKL
HLA-DRB5 (human) = assay: competition ELISA, tracer not stated
HLA-DR11 (human) = assay: competition ELISA, tracer HA 306-318
HLA-DR1 (human) = assay: competition ELISA, tracer HA 306-318
HLA-DR15 (human) = assay: competition ELISA, tracer A3 152-166
HLA-DR4 (human) = assay: competition ELISA, tracer HA 306-318

Row | Binder | IC50 [1] | IC50 [2] | IC50 (HLA-DR7 (human)) | IC50 (HLA-DRB5 (human)) | IC50 (HLA-DR11 (human)) | IC50 (HLA-DR1 (human)) | IC50 (HLA-DR15 (human)) | IC50 (HLA-DR4 (human))
1 | ALWNLHGQALFLGIVL (modifications not checked) [A16L] | 1180 nM | 0.725 µM | 122 nM | 2680 nM | 11 µM | 79 nM | 48 nM | –
2 | ASSYAAAQRKLLTPV (modifications not checked) [A15V] | – | – | 1730 nM | 463 nM | 0.004 µM | 1200 nM | 26500 nM | 35.5 µM
3 | DPHLPTLLLGTSGSGGDDDDPHGPVQLSYYD (modifications not checked) [D31D] | – | 28.3 µM | 27500 nM | – | 25 µM | 17300 nM | 251 nM | –
